In article PMC12912723:

Target: PscF from strain PAO1 (Pseudomonas aeruginosa) (UniProt P95434)
Test: ELISA; competition with biotinylated P1D8

P1D8 (human anti-PscF monoclonal antibody) (from UniProt P01857)
IC50: 0.01 µg/mL
